Activity data for 3 substances are collected here from patent US20050112108.

The data set has as its target GAAP-1 (Homo sapiens) (UniProt P15822). Nature of the data set: cell_activity. The settings on record: luciferase vs empty vector.

Chain of GAAP-1 (Homo sapiens) (P15822 other isoform, or with tags, fused parts or gaps): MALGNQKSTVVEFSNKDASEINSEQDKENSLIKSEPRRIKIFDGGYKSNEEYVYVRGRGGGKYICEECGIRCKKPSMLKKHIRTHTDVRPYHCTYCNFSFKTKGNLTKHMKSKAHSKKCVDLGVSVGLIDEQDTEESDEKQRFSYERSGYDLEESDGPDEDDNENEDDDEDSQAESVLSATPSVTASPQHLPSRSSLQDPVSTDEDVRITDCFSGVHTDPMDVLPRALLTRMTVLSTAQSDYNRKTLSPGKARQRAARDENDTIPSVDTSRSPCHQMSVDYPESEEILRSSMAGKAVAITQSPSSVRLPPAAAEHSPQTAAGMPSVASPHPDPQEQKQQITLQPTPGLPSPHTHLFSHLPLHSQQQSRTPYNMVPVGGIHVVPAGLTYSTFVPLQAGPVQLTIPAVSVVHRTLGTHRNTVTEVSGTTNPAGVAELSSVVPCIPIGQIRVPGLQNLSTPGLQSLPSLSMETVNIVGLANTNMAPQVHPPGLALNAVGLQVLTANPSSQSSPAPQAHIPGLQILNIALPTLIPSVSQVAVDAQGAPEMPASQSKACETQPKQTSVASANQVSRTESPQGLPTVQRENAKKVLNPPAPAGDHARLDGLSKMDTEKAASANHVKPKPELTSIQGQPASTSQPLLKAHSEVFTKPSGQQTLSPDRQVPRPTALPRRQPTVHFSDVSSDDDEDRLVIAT

As for IPCS-SV40 chimeric promoter, the activity worked out at 2.5 fold.

Take IRF1 promoter luciferase: the activity was determined as 2.5 fold.

p53 promoter luciferase yielded an activity (K562 in text, U937 in figure legend) of 2.5 fold.
